Measured values as given in publication PMC10008561.

Legend:
[1] = target: human KOR R170A (human) (UniProt P41145)
[2] = target: human KOR L253A (human) (UniProt P41145)
[3] = target: human KOR D155A (human) (UniProt P41145)
[4] = target: human KOR R257A (human) (UniProt P41145)

Chain of GαoB fused with Renilla luciferase (Gα-RLuc8) (P09471 other isoform, or with tags, fused parts or gaps): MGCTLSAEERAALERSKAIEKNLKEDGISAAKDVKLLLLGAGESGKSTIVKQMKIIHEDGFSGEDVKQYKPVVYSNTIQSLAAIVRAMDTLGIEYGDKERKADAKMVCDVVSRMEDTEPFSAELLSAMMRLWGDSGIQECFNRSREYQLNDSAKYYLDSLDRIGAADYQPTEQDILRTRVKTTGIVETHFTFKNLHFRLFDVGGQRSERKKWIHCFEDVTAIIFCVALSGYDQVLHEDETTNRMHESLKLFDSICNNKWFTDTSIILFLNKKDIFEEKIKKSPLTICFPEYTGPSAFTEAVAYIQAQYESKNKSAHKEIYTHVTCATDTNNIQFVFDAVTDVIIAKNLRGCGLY
Chain of Gα gustducin fused with Renilla luciferase (Gα-RLuc8) (A8MTJ3 whole entry, the tested form may be a part): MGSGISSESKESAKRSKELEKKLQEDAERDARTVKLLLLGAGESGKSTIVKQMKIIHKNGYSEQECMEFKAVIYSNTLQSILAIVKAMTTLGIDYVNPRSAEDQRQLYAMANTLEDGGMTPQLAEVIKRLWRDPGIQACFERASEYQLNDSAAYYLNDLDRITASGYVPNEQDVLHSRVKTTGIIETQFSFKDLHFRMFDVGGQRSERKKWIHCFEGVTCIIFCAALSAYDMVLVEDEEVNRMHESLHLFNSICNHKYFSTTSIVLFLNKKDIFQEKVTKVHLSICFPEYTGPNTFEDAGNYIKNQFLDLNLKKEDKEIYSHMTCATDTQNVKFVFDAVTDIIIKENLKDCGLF
Chain of Gαi2 fused with Renilla luciferase (Gα-RLuc8) (P04899 whole entry, the tested form may be a part): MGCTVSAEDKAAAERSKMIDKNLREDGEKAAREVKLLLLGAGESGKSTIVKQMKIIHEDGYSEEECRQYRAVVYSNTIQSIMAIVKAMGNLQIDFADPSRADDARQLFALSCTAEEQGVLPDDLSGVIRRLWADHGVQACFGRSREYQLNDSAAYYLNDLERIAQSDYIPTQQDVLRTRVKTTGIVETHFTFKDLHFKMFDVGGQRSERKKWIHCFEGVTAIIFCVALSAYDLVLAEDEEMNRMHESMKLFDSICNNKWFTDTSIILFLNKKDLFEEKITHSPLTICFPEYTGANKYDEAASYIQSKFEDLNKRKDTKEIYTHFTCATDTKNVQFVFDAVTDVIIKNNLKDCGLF
Chain of Gαi3 fused with Renilla luciferase (Gα-RLuc8) (P08754 whole entry, the tested form may be a part): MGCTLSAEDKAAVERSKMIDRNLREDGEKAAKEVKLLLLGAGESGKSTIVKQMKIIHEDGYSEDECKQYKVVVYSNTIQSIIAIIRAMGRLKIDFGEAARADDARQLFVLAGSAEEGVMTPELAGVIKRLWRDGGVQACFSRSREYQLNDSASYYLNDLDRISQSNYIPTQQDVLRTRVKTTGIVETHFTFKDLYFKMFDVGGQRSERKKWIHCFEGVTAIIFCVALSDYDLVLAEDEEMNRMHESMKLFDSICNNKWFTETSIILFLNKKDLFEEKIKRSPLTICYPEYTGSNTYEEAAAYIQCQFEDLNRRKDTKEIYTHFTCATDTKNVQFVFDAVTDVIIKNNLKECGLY
Chain of Gαz fused with Renilla luciferase (Gα-RLuc8) (P19086 whole entry, the tested form may be a part): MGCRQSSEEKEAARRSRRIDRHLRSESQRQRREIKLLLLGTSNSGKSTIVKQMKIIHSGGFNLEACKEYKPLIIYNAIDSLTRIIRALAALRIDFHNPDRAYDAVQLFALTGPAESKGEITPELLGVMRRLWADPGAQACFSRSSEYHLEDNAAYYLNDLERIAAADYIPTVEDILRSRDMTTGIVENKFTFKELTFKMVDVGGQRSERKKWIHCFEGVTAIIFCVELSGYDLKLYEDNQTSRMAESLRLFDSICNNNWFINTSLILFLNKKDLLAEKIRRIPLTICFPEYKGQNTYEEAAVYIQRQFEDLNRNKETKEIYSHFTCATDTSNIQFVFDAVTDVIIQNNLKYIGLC
Chain of GαoA fused with Renilla luciferase (Gα-RLuc8) (P09471 whole entry, the tested form may be a part): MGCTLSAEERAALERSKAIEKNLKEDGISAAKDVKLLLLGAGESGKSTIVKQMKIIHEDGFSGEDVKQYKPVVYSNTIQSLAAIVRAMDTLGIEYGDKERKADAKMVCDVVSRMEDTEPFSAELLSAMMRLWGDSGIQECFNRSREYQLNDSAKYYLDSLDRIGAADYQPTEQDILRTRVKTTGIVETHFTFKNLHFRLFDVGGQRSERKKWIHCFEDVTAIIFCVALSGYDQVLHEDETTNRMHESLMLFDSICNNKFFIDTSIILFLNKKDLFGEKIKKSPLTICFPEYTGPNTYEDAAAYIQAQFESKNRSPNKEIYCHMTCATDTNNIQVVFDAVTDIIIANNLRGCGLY

Row | Substance | BRET2 G protein activation (TRUPATH); fold decrease of the potency of nalfurafine against wild-type KOR [1] [fold] | BRET2 G protein activation (TRUPATH) with nalfurafine; fold decrease against wild-type KOR [2] [fold] | BRET2 G protein activation (TRUPATH); fold decrease of the potency of nalfurafine against wild-type KOR [3] [fold] | BRET2 G protein activation (TRUPATH) with nalfurafine; fold decrease against wild-type KOR [4] [fold]
1 | GαoB fused with Renilla luciferase (Gα-RLuc8) (from UniProt P09471-2 1-354) (natural protein) | 10 | 10 | < 10 | 10
2 | Gαi2 fused with Renilla luciferase (Gα-RLuc8) (from UniProt P04899 1-355) (natural protein) | 100 | 100 | < 10 | 100
3 | Gαi3 fused with Renilla luciferase (Gα-RLuc8) (from UniProt P08754 1-354) (natural protein) | 100 | 100 | < 10 | 100
4 | Gαz fused with Renilla luciferase (Gα-RLuc8) (from UniProt P19086 1-355) (natural protein) | 10 | 10 | < 10 | 10
5 | GαoA fused with Renilla luciferase (Gα-RLuc8) (from UniProt P09471 1-354) (natural protein) | 10 | 10 | < 10 | 10
6 | Gα gustducin fused with Renilla luciferase (Gα-RLuc8) (from UniProt A8MTJ3 1-354) (natural protein) | 10 | 10 | < 10 | 10
